Data published in patent US20220348670A1 (BIODURO BEIJING, published 2022).

What was measured:
[1] = target: T1, full-length human OX40 protein (human, UniProt P43489 29-277); assay: FACS on Jurkat-hOX40 cells, PE anti-human FC secondary antibody
T1 sequence (looked up): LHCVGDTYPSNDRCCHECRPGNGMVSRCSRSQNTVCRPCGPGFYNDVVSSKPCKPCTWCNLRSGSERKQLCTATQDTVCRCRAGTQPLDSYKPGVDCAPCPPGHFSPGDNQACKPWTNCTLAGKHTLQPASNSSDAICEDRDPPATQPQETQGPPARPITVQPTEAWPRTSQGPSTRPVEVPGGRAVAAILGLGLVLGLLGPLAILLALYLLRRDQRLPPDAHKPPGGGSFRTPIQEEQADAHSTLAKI
Procedure: Jurkat-hOX40 stable cell lines constructed in Example 2.1 were expanded and cultured in a cell culture flask, and cells in the logarithmic growth phase were counted. The cells were centrifuged at 1000 rpm for 5 min and then resuspended in FACS buffer (PBS+1% FBS) to 2×10⁶ cells/mL, and added to a 96-well FACS culture plate at 200 μL per well. After centrifugation at 1000 rpm for 5 min, the supernatant was removed, and a series of concentration gradients of purified anti-human OX40 antibodies to be tested or isotype control were added at 200 μL per well, incubated at 4° C. for 1 hour in the dark, centrifuged at 1000 rpm for 5 min, and then added with 200 μL of PE fluorescently labeled anti-human FC secondary antibody (purchased from Invitrogen) per well, and incubated at 4° C. for 1 hour in the dark. After washing twice with FACS buffer, PBS buffer containing 1% paraformaldehyde at 200 μL per well was added to resuspend cells, and a FACS instrument (BD Accuri C6) was used for detection and analysis.

[2] = target: T1, full-length human OX40 protein; assay: FACS on L929-hOX40 cells, PE anti-human FC secondary antibody
Procedure: The L929-hOX40 stable cell line constructed in Example 2.1 was cultured and expanded to 90% confluence in a cell culture flask. After washing with PBS, the cell culture was digested with 0.25% Trypsin (purchased from Thermofisher) to form a single-cell suspension, neutralized with 10% FBS-containing medium, and counted. After centrifugation at 1000 rpm for 5 min, the cells were resuspended to 2×10⁶ cells/mL with FACS buffer (PBS+1% FBS), added to a 96-well FACS culture plate at 200 μL per well, centrifuged at 1000 rpm for 5 min and the supernatant was removed. A series of concentration gradients of anti-human OX40 antibodies to be tested or isotype control were added at 200 μL per well, and incubated at 4° C. for 1 hour in the dark. After centrifugation at 1000 rpm for 5 min, 200 μL of PE fluorescently labeled anti-human FC secondary antibody (purchased from Invitrogen) was added to each well, and incubated at 4° C. for 1 hour in the dark. After washing twice with FACS buffer, PBS buffer containing 1% paraformaldehyde at 200 μL per well was added to resuspend the cells, and a FACS instrument (BD Accuri C6) was used for detection and analysis.

[3] = target: T1, full-length human OX40 protein; assay: cell-based or functional assay
OX40-mFc protein = target: T2, OX40-mFc protein (UniProt P43489 29-214); assay: phage ELISA, monoclonal phage supernatant on OX40-mFc
T2 sequence (looked up): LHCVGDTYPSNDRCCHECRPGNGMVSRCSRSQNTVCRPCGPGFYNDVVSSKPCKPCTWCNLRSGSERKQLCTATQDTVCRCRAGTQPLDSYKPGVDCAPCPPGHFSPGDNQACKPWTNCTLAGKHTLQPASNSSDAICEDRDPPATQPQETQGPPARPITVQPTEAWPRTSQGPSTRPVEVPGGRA

Milk = assay: phage ELISA, monoclonal phage supernatant on milk (background control)
murine full-length OX40 = target: T3, murine full-length OX40 (murine, UniProt P47741 20-272); assay: FACS on transiently transfected CHO-S cells
T3 construct: whole, on cells; also called CHOS-OX40 (mus); PCMV3-OX40 (Mus)
T3 sequence (looked up): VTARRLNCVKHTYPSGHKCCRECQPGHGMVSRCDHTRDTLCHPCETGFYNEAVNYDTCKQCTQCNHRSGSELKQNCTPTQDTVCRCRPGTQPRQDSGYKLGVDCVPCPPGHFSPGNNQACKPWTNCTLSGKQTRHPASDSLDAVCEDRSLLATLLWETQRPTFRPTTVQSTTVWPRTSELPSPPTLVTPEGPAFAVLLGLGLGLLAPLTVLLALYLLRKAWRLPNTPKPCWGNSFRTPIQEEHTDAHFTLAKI
Text: (§1) Transient transfection of OX40 expression vector: CHO-S cells were revived, and passaged for at least 2 times, and then seeded into a 6-well plate at a density of 1×10⁶ cells/well. At the following day, the above expression vectors expressing different domains of OX40 were transfected into CHO-S cells by PEI transfection method.

OX40 (CRD3-4human) = target: T4, OX40 (CRD3-4human) (human, UniProt P43489 108-277, limits assumed); assay: FACS on transiently transfected CHO-S cells
T4 construct: domain: CRD3-4; Named only in the results sentence; its construction is not described; also called CHOS-OX40 (CRD3-4human)
T4 sequence (looked up): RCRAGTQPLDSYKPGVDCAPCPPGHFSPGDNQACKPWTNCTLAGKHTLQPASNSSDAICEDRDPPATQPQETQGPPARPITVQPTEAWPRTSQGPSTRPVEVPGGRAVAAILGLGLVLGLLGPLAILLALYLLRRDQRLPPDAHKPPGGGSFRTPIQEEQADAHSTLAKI
Text: as §1

Q: What does the source list for Isotype control (human IgG) (antibody)?
A: Maximum mean fluorescence intensity value (MFI) [1]: 999 MFI; Maximum mean fluorescence intensity value (MFI) [2]: 8960 MFI; Maximum value (RLU), NF-kB reporter gene assay [3]: 2650 RLU

B1: OX40 BC3-7 (phage-displayed VHH clone) (VHH)
VHH: EVQLVESGGGLVQPGGSLRLSCAASGSIYDFDVMGWFRQAPGKGRELVAAINSFGDITYYPDSVEGRFTISRDNAKRMVYLQMNSLRAEDTAVYYCAADWHVLIQQVLGYWGQGTQVTVSS
notes: Tested as phage in monoclonal culture supernatant (M13 display), not as purified protein; the phage coat fusion is not described
Q: Which “ELISA Results (OD450)” value (OX40-mFc protein) does the source give for B1 here?
A: The value was 3.12 OD450.

Q: And the ELISA Results (OD450) (Milk)?
A: Its ELISA Results (OD450) is 0.045 OD450.

B2: anti-human OX40 antibody BC3-7 (OX40 VHH-Fc) (Fc fusion)
chain: B1 VHH
notes: VHH fused through a linker to human IgG Fc, expressed in ExpiCHO, purified on Protein A; also called OX40 BC3-7; OX40 VHH-Fc antibody; not shown: linker encoded by the CMV-12GS-FC vector; human IgG FC fragment (hFC)
Q: Which results are given for B2?
A: binding result (murine full-length OX40): no binding; binding result (OX40 (CRD3-4human)): no binding; EC50 [1]: 0.548 nM; Maximum mean fluorescence intensity value (MFI) [1]: 24100 MFI; EC50 [2]: 0.693 nM; Maximum mean fluorescence intensity value (MFI) [2]: 327000 MFI; EC50, NF-kB reporter gene assay [3]: 0.13 nM; Maximum value (RLU), NF-kB reporter gene assay [3]: 48400 RLU

B3: OX40 BC3-6 (phage-displayed VHH clone) (VHH)
VHH: EVQLVESGGGLVQPGGSLRLSCAASGSILDSNLMGWFRQAPGKGRELVASINSYDDNTYYPDSVEGRFTISRDNAKRMVYLQMNSLRAEDTAVYYCAAQVFVGWPYTDQMHDYWGQGTQVTVSS
notes: as for B1
Q: With B3 as the molecule, how does the “ELISA Results (OD450)” value (OX40-mFc protein) read?
A: Its value is 3.21 OD450.

Q: What about the ELISA Results (OD450) (Milk) of the same molecule?
A: The ELISA Results (OD450) was 0.045 OD450.

B4: anti-human OX40 antibody BC3-6 (OX40 VHH-Fc) (Fc fusion)
chain: B3 VHH
notes: VHH fused through a linker to human IgG Fc, expressed in ExpiCHO, purified on Protein A; also called OX40 BC3-6; OX40 VHH-Fc antibody; not shown: linker encoded by the CMV-12GS-FC vector; human IgG FC fragment (hFC)
Q: Does B4 bind (murine full-length OX40)?
A: Result: no binding

Q: Does B4 bind (OX40 (CRD3-4human))?
A: Result: no binding

Q: And the EC50 [1]?
A: The EC50 was 0.683 nM.

Q: What about the “Maximum mean fluorescence intensity value (MFI)” value [1] of the same molecule?
A: The value was 12800 MFI.

Q: And the EC50 [2]?
A: Its EC50 is 0.545 nM.

Q: And the “Maximum mean fluorescence intensity value (MFI)” value [2]?
A: The value was 198000 MFI.

Q: And the “EC50, NF-kB reporter gene assay” value [3]?
A: Its value is 0.162 nM.

Q: And the “Maximum value (RLU), NF-kB reporter gene assay” value (“Maximum value (RLU)” below) [3]?
A: Its value is 50300 RLU.

B5: OX40 BC3-4 (phage-displayed VHH clone) (VHH)
VHH: EVQLVESGGGLVQPGGSLRLSCAASGFIFSAYFMGWFRQAPGKGRELVAAINSNDDITYYPDSVEGRFTISRDNAKRMVYLQMNSLRAEDTAVYYCAAWLGAENYGYWGQGTQVTVSS
notes: as for B1
Q: Which results are given for B5?
A: ELISA Results (OD450) (OX40-mFc protein): 3.31 OD450; ELISA Results (OD450) (Milk): 0.045 OD450

B6: anti-human OX40 antibody BC3-4 (OX40 VHH-Fc) (Fc fusion)
chain: B5 VHH
notes: VHH fused through a linker to human IgG Fc, expressed in ExpiCHO, purified on Protein A; also called OX40 BC3-4; OX40 VHH-Fc antibody; not shown: linker encoded by the CMV-12GS-FC vector; human IgG FC fragment (hFC)
Q: Does B6 bind (murine full-length OX40)?
A: Result: no binding

Q: Does B6 bind (OX40 (CRD3-4human))?
A: Result: no binding

Q: What about the EC50 [1] of the same molecule?
A: Its EC50 is 0.395 nM.

Q: And the “Maximum mean fluorescence intensity value (MFI)” value [1]?
A: Its value is 24000 MFI.

Q: And the EC50 [2]?
A: The EC50 was 0.862 nM.

Q: What about the “Maximum mean fluorescence intensity value (MFI)” value [2] of the same molecule?
A: Its value is 308000 MFI.

Q: And the “EC50, NF-kB reporter gene assay” value [3]?
A: Its value is 0.175 nM.

Q: And the “Maximum value (RLU)” value [3]?
A: The value was 55700 RLU.

B7: OX40 BC3-1 (phage-displayed VHH clone) (VHH)
VHH: EVQLVESGGGLVQPGGSLRLSCAASGSIFSVYVMGWFRQAPGKGRELVAAITPFDDNTYYPDSVEGRFTISRDNAKRMVYLQMNSLRAEDTAVYYCAADWEWPEYNYWGQGTQVTVSS
notes: as for B1
Q: Which “ELISA Results (OD450)” value (OX40-mFc protein) does the source give for B7 here?
A: The value was 3.45 OD450.

Q: What about the ELISA Results (OD450) (Milk) of the same molecule?
A: The ELISA Results (OD450) was 0.047 OD450.

B8: anti-human OX40 antibody BC3-1 (OX40 VHH-Fc) (Fc fusion)
chain: B7 VHH
notes: VHH fused through a linker to human IgG Fc, expressed in ExpiCHO, purified on Protein A; also called OX40 BC3-1; OX40 VHH-Fc antibody; not shown: linker encoded by the CMV-12GS-FC vector; human IgG FC fragment (hFC)
Q: Does B8 bind (murine full-length OX40)?
A: Result: no binding

Q: Does B8 bind (OX40 (CRD3-4human))?
A: Result: no binding

Q: And the EC50 [1]?
A: The EC50 was 0.257 nM.

Q: What about the “Maximum mean fluorescence intensity value (MFI)” value [1] of the same molecule?
A: The value was 17500 MFI.

Q: What about the EC50 [2] of the same molecule?
A: The EC50 was 0.488 nM.

Q: And the “Maximum mean fluorescence intensity value (MFI)” value [2]?
A: The value was 285000 MFI.

Q: And the “EC50, NF-kB reporter gene assay” value [3]?
A: Its value is 0.209 nM.

Q: And the “Maximum value (RLU)” value [3]?
A: The value was 53400 RLU.
